Results taken from US20120263734A1.

Biological target: GPCMV gB (glycoprotein B of Guinea Pig CMV strain V545/82) (guinea pig CMV (GPCMV))
Experiment: cell-based or functional assay

Substance: ITC88 control antibody
- neutralization of GPCMV V545/82 entry into JH4 cells (highest concentration tested, no effect): > 300 µg/mL
